This is an account of results in the RNAGym collection of RNA variant scans (doi:10.7554/elife.90254).

To fix the notation:
B1: OR4K15 (parent)
chain: GUUAACGGUCAUAGGCCAUGGAAACUAGGAGCACCAUUUCGCUGCCAGUGAAGAAAUGAACAAAGAAAAUCUGGGCCAGGCAGGCAUCAAAAGAAAUAGUCUUGCGCUCAACCAGAAAGUCUGUAAUCAUUUUAAGGGUA

In this data set the parent is B1. The data set can be described thus: self-cleavage, relative activity (ratio to wild type); higher = more cleavage; in vitro, sequencing; the parent is a self-cleaving ribozyme.
Take GUUAACGGUCAUAGGCCAUGGAAACUAGGAGCCCCAUUUCGCUGCCAGUGAAGAAAUGAACAAAGAAAAUCUGGGCCAGGCAGGCAUCAAAAGAAAUAGUCUUGCGCUCAACCAGGAAGUCUGUAAUCAUUUUAAGGGUA [A33C A116G]: the self-cleavage was 0.76.
The figure for GUUAACGGUCAUAGGCCAUGGAAACUGGGAGCACCAUUUCGCUGCCAGUGAAGAAAUGAACAAAGAAAAUCUGGGCCAGGCAGGCAUCAAAAGAAAUAGUCUUGCGCUCGACCAGAAAGUCUGUAAUCAUUUUAAGGGUA [A27G A110G] is 0.1; for GUUAACGGUCAUAGGCCAUGGAAACUAGGAGCACCAUUUCGCUGCCAGUGAAGAAAUGAACAAAGAAAAUCUGGGCCAGGCAGGCUUCAAAAGAAAUAGUCUUGCGCUCAACCAGAAAGUCUGUAAUCAUUCUAAGGGUA [A86U U132C] it is 1.71.
The figure for GUUAACGGUCAUAGGCCAUGGAAACUAGGAGCACCAUUUCGCUGCCAGUGAAGAAAUGAACAAAGAAAAUCUGGGCCAGGCAGGCAUCAAAGGAAAUAGUCUUGCGCCCAACCAGAAAGUCUGUAAUCAUUUUAAGGGUA [A92G U108C] is 0.01; for GUUAACGGUCAUAGGCCAUGGAAACUAGGAGCACCAUUUCGCUGCCAGUGAAGAAAUGAACAAAGAAAAUCUGGGCCAGGCAGGCAUCUAUAGAAAUAGUCUUGCGCUCAACCAGAAAGUCUGUAAUCAUUUUAAGGGUA [A89U A91U] it is 1.24.
With GUUAACGGUCAUAGGCCAUGGAAACUAGGAGCACCAUCUCGCUGCCAGUGAAGAAAUGAACAGAGAAAAUCUGGGCCAGGCAGGCAUCAAAAGAAAUAGUCUUGCGCUCAACCAGAAAGUCUGUAAUCAUUUUAAGGGUA [U38C A63G] the figure was 1.7; with GUUAACGGUCAUAGGCCAUGGAAACUAGGAGCACCAUUUCGCUGCCAGUGAAGAAAUGAACAAAGAAAAUCUGGGCCAGGCAGGCAUCAAAAGAAAUAGUCUUGCGCUCAACCAGAAAGUCUGUAACCACUUUAAGGGUA [U127C U130C], 0.69; with GUUAACGGUCAUAGGCCAUGGAAACUAGGAGCACCAUUUCGCUGCCAGAGAAGAAAUGAACAAAGUAAAUCUGGGCCAGGCAGGCAUCAAAAGAAAUAGUCUUGCGCUCAACCAGAAAGUCUGUAAUCAUUUUAAGGGUA [U49A A66U], 1.29.
For GUUAACGGUCAAAGGCCAUGGAAACUAGGAGCACCAUUUCGCUGCCAGUGAAGAAAUGAACAAAGAAAAUCUGGGCCAGGCAGGCAUCAAAAGAAAUAGUCUUGCGCUCAACCAGAAAGUCUGUAAUCAUUUUAAGGGUG [U12A A140G], the self-cleavage worked out at 1.5.
For the variant GUUAACGGUCAUAGGCCAUGGAAACUAGGAGCACCAUUUCGCUGCCAGUGAAGAAAUGAACAAAGAAAAUCUGGGCCAGGCAGGCAUCAAAAGAAAUAGUCCUGCGCUCAGCCAGAAAGUCUGUAAUCAUUUUAAGGGUA [U102C A111G], the self-cleavage turned out to be 0.01.
As to GUUAACGGUCAUAGGCCAUGGAAACUAGGAGCACCAUUUCGCUGCCAGUGAAGAAAUGAACAAAGAAAAUCUGGGCCAGGCAGGCAUCAAAAGAAAUAGUCCUGCGUUCAACCAGAAAGUCUGUAAUCAUUUUAAGGGUA [U102C C107U], the self-cleavage was 0.01.
The figure for GUUAACGGUCAUAGGCCAUGGGACCUAGGAGCACCAUUUCGCUGCCAGUGAAGAAAUGAACAAAGAAAAUCUGGGCCAGGCAGGCAUCAAAAGAAAUAGUCUUGCGCUCAACCAGAAAGUCUGUAAUCAUUUUAAGGGUA [A22G A24C] is 0.56; for GUUAACGGUCAUAGGCCACGGAAACUAGGAGCACCAUUUCGCUGCCAGUGAAGAAAUGAACAAAGAAAAUCUGGGCCAGGCAGGCAUCAAAAGAAAUAGUCUUGCGCUCAACCAGAAAGUCUGUAAUCAUUAUAAGGGUA [U19C U132A] it is 1.89.
GUUAACGGUCAUAGGCCAUGGAAACUAGGAGCACCAUUUCGCUGCCAGUGAAGAAAUGAACAAAGAAAAUCUGGGCCAGGCAGGCAUCAAAAGAAAUGGUCUUGCGCUCAACCAGAAAGUCUGUAAUCUUUUUAAGGGUA [A98G A129U]: the self-cleavage turned out to be 0.3.
For the variant GUUAACGGUCAUAGGCCAUGGAAACUAGGAGCACCAUUUCGCUGCCAGUGAAGAGAUGAACAAAGAAGAUCUGGGCCAGGCAGGCAUCAAAAGAAAUAGUCUUGCGCUCAACCAGAAAGUCUGUAAUCAUUUUAAGGGUA [A55G A68G], the self-cleavage worked out at 1.23.
With GUUAACGGUCAUAGGCCAUGGAAACUACGAGCACCAUUUCGCUGCCAGUGAAGAAAUGAACAAAGAAAAUCUGGGCCAGGCAGGCAUCAAAAGAAAUAGUCUUGCGCUCAACCAGAAAGUCUGUAAUCACUUUAAGGGUA [G28C U130C], the self-cleavage is 0.64.
For GUUAACGGUCAUAGGCCAUGGAAACUAGGAGCACCAUUUCGCUGCCAGUGAAGAAAUGAACAAAGAAAAUCUGGGCCAGGCAGGCAUCAAAAGAAAUAGUCUAGCGCUCAACCGGAAAGUCUGUAAUCAUUUUAAGGGUA [U103A A114G], the self-cleavage was found to be 0.45.
On to GUUAACGGUCAUAGGCCAUGGAAACUGGGAGCACCAUUUCGCUGCCAGUGAAGAAAUGAACAAAGAAAAUCUGGGCCAGGCAGGCAUCAAAAGAAGUAGUCUUGCGCUCAACCAGAAAGUCUGUAAUCAUUUUAAGGGUA [A27G A96G], for which the self-cleavage was found to be 1.1.
Turning to GUUAACGGUCAUAGGCCAUGGAAACUAGGAGCACCAUUUCGCUGCCAGUGAAGAAAUGAACAAAGAAAAUCUGGGCCAGGCAGGCAUCAAAAGAAAUAGUCUUGCGCUCUACCAGAAAGUCUGUAAUCAUUAUAAGGGUA [A110U U132A], the self-cleavage came to 1.8.
With GUUAACGGUCAUAGGCCAUGGAAACUAGGAGCACCAUUUCGCUGCCAGUGAAGAAAUGAACAAAGAAAAUCUGGGCCAGGCAGGCAUCAAUAGAAAUAGUCUUGCGCUCAACCAGAGAGUCUGUAAUCAUUUUAAGGGUA [A91U A117G] the figure was 1.88; with GUUAACGGUCAUAGGCCAUGGAAACUAGGAGCACCAUUUUGCUGCCAGUGAAGAAAUGAACAAAGAAAAUCUGGGCCAGGCAGGCAUCAAAAGAAAUAGCCUUGCGCUCAACCAGAAAGUCUGUAAUCAUUUUAAGGGUA [C40U U100C], 1.83.
In the case of GUUAACGGUCAUAGGCCAUGGAAACUAGGAGCACCAUUUCGCUGCCAGUGAAGAAAUGAACAAAGAAAAUCUGGGCCAGGCAGGCAUCAAAAGAAAUAGUCUUGCGCUCAACCAGAAAGCCUGUAAUCAUUUUGAGGGUA [U120C A134G], the self-cleavage was determined as 1.3.
Consider GUUAACGGUCAUAGGCCAUGGAAACUAGGAGCACCAUUUCGCUGCCAGUGAAGAAGUGAACAAAGAAAAUCCGGGCCAGGCAGGCAUCAAAAGAAAUAGUCUUGCGCUCAACCAGAAAGUCUGUAAUCAUUUUAAGGGUA [A56G U72C], for which the self-cleavage came out at 0.28.
With GUUAACGGUCAUAGGCCCUGGAAACUAGGAGCACCAUUUCGCUGCCAGUGAAGAAAUGAACAAAGAAAAUCUGGGCCAGGCAGGCAUCAAAAGAAAUAGUCUUGCGCUCAACCAGAAAGUCUGUAAUCAUUUUAAGGGUG [A18C A140G] the figure was 0.94; with GUUAACGGUCAUAGGCCAUGGAAACUAGGAGCACCAUUUCGCUGCCAGUGAAGAAAUGAACAAAGAAAAUCUGGGCCAGGCAAGCAUCAAAGGAAAUAGUCUUGCGCUCAACCAGAAAGUCUGUAAUCAUUUUAAGGGUA [G83A A92G], 1.87; with GUUAACGGUCAUAGGCCAUGGAAACUAGGAGCACCAUUUCGCUGCCAGUAAAGAAAUGAACAAAGUAAAUCUGGGCCAGGCAGGCAUCAAAAGAAAUAGUCUUGCGCUCAACCAGAAAGUCUGUAAUCAUUUUAAGGGUA [G50A A66U], 0.67.
With GUUAACGGUCAUAGGCCAUGGAAGCUAGGAGCACCAUUUCGCUGCCAGUGAAGAAAUGAACAAAGAAAAUCUGGGCCAGGCAGGCAUCAAAAAAAAUAGUCUUGCGCUCAACCAGAAAGUCUGUAAUCAUUUUAAGGGUA [A24G G93A] the figure was 0.88; with GUUAACGGUCAUAGGCCAUGGAAACUAGGAGCACCAUUUCGCUGCCAGUGAAGAAAUGAGCAAAGAAAAUCUGGGCCAGGCAGGCAUCAAAAGUAAUAGUCUUGCGCUCAACCAGAAAGUCUGUAAUCAUUUUAAGGGUA [A60G A94U], 2.32.
For GUUAACGGUCAUAGGCCAUGGAAACUAGGAGCACCAUUUCGCUGCCAGUGAAGAAAUGAACAAAGAAAAUCUGGGCCAGGCAGGCAUCAAAAGAAAUAGUCAUGCGCACAACCAGAAAGUCUGUAAUCAUUUUAAGGGUA [U102A U108A], the self-cleavage turned out to be 0.02.
With GUUAACGGUCAUAGGCCAUGGAAACUAGGAGCACCAUUUCGCUGCCAGUGAAGAAAUGAACUAAGAAAAUCUGGGCCAGGCAGGCAUCAAAAGAAAUAGUCUUGCGCUCUACCAGAAAGUCUGUAAUCAUUUUAAGGGUA [A62U A110U] the figure was 1.27; with GUUAACGGUCAUAGGCCAUGGAAACUAGGAGCACCAUUUCGCUGCCAGUGAAGAAAUGAACAAAGAAAAUCUGGGCCAGGCAGGCAUCAAAAGAAAUAGUCUUGCGCUCAACCAGAAAGUCCGUAAUCAUUUUAAUGGUA [U122C G136U], 1.86.
With GUUAACGGUAAUAGGCCAUGGAAACUAGGAGCACCAUUUCGCUGCCAGUGAAGAAAUGAACAAAGAAAAUCUGGGCCAGGCAGGCAUCAAAAGAAAUAGUCUUGCGCUCAACCAGAAAGUCUGUAAUCAUUUUAAGGGUA [C10A] the figure was 1.11; with GUUAACGGUCAUAGGCCAUGGAAACUAGGAGCACCAUUUCGCUGCCUGUGAAGAAAUGAACAAAGAAAAUCUGGGCCAGGCAGGCAUCAAAAGAAAUAGUCUUGCGCUCAACCAGAACGUCUGUAAUCAUUUUAAGGGUA [A47U A118C], 0.48.
Consider GUUAACGGUCAUAGGCCAUAGAAACUAGGAGCACCAUUUCGCUGCCAGUGAAGAAAUGAACAAAGAAAAUCUGGGCCAGGCAGGCAUCAAAAGAAAUAGUCCUGCGCUCAACCAGAAAGUCUGUAAUCAUUUUAAGGGUA [G20A U102C], for which the self-cleavage was found to be 2.1.
The figure for GUUAACGGUCAUUGGCCAUGGAAACUAGGAGCACCAUUUCGCUGCCUGUGAAGAAAUGAACAAAGAAAAUCUGGGCCAGGCAGGCAUCAAAAGAAAUAGUCUUGCGCUCAACCAGAAAGUCUGUAAUCAUUUUAAGGGUA [A13U A47U] is 1.24; for GUUAACGGUCAUAGGCCAUGGAAACUAGGAGCACCACUUCGCUGCCAGUGAAGAAAUGAACAAAGAAAAUCUAGGCCAGGCAGGCAUCAAAAGAAAUAGUCUUGCGCUCAACCAGAAAGUCUGUAAUCAUUUUAAGGGUA [U37C G73A] it is 0.19.
As to GUUAACGGUCGUAGGCCAUGGAAACUAGGAGCACCAUUUCGCUGCCAGUGAAGAAAUGAACAAAGAAAAUCUGGGCCAGGCAGGCAUCAAAAGAAAUAGUCUUGUGCUCAACCAGAAAGUCUGUAAUCAUUUUAAGGGUA [A11G C105U], the self-cleavage stood at 0.09.
In the case of GUUAACGGUCAUAGGCCAUGGAAACUAGGAGCACCAUUUCGCUGCCAGUGAAGAAAUGAACAAAGAAAAUCUGGGCCAGGCAGGCAUCAAAAGAAAUAGUCUUGCGCUCAACUAGAAAGUCCGUAAUCAUUUUAAGGGUA [C113U U122C], the self-cleavage is 0.08.
Regarding GUUAACGGUCAUAGGCCAUGGAAACUAGGAGCACCAUUUCGCUGCCAGUGAAGAAAUGAACAAAGAAUAUCUGGGCCAGGCAGGCAGCAAAAGAAAUAGUCUUGCGCUCAACCAGAAAGUCUGUAAUCAUUUUAAGGGUA [A68U U87G], the self-cleavage was 0.38.
The figure for GUUAACGGUCAUAGGCCAUGGAAACUAGGAACACCAUUUCGCUGCCAGUGGAGAAAUGAACAAAGAAAAUCUGGGCCAGGCAGGCAUCAAAAGAAAUAGUCUUGCGCUCAACCAGAAAGUCUGUAAUCAUUUUAAGGGUA [G31A A51G] is 1.64.
Regarding GUUAACGGUCAUAGGCCAUGGAAACCAGGAGCACCAUUUCGCUGCCAGUGAAGAAAUGAACAAAGAAAAUCUGGGCCAGGCAGGCAUCAAAAGAAAUAGUCUUGCGCUCAGCCAGAAAGUCUGUAAUCAUUUUAAGGGUA [U26C A111G], the self-cleavage worked out at 0.03.
